Reference: the DeepSol protein solubility set

Assay: soluble on expression in E. coli; label from the status in PepcDB or PDB records

| Sequence | soluble on expression in E. coli |
| --- | --- |
| MGSDKIHHHHHHENLYFQGMTQFKLIGFDLDGTLVNSLPDLALSINSALKDVNLPQASENLVMTWIGNGADVLSQRAVDWACKQAEKELTEDEFKYFKRQFGFYYGENLCNISRLYPNVKETLEALKAQGYILAVVTNKPTKHVQPILTAFGIDHLFSEMLGGQSLPEIKPHPAPFYYLCGKFGLYPKQILFVGDSQNDIFAAHSAGCAVVGLTYGYNYNIPIAQSKPDWIFDDFADILKITQ | soluble |
| MSLSADKLYIDKELSWLSFNERVLQEAADKTVPLIERIRFLGIFSNNLDEFYKVRFADVKRQILINRERGGNDISKHLLSRMQSKALKLNQDFDNLYNELILEMARRRIFLVNETQLDEIQLKWVKKYFHKEVLPHVTPIMLRDDIDVMQFLKDEYAYIAVEMRSGDEFKYALIEIPTDQLPRFVMLPEQKGKRRKTIILLDNIIRLCLDEIFRGFYDYDTLNGYAMKMTRDAEYDLRHEVEYSLLEQMSEGLSQRLTALPVRFVYEREMPEAMLKFLCYKLKISHYDSLIPGGRYHNFKDFISFPNVGRDYLENKPLPPMTCADFEGYANAFDAIRAQDILLHYPYHSFEHMTELVRQASFDPKVVSIKINIYRVAKDSKLMNSLVDAVHNGKRVVVVVELQARFDEEANIEWSRILTDAGVHVIFGVPGMKIHAKLLLITRKEGDEFVRYAHIGTGNFHERTARIYTDFALLTANQELAAEVRAVFGYIENPFRPVKFNHLIVSPRNSRTQIYRLLDSEIANAKAGKKAAITLKVNNLVDKGLINKLYGASAAGVKIRMIIRGMCSLVPGVEGVSDNIEIISIIDRFLEHPRVLVVHNDGNPQVFISSADWMERNIDHRIEVMAPIRDERLKQRIIDILNIQFIDTVKARRIDKEMSNQYVERGNRRKVRSQIAIYDYLKNVEKQTRKAKGQQETNDNSSQEGHHHHHH | soluble |
| MEDEHSRQAYVDQLGLLEEGADEVFEEILAAATSYFQTPIALISILDHQRQWFRASIGLDIRQTPRRDSFCAYAILGKGVFEVADATLDPRFRDNPYVQGEPRIRFYAGAPLATAEGLNLGSLCVIDREPRGPLAERDVAMLEHFARLVMARIHTLRSTNYIDEPTGLYNRLRLQEDVSLRLQRDGALTVIAADLLPLALLNTIIRTLGYPFSNDLMLEARDRIRAELPDFTLYKISPTRFGLLLPRQQQEETESVCLRLLRAFESPVVCRGIPIKANVGLGVLPLADDTLDGDQDWLRLVVSAADDARDRGVGWARYNPPLDQAQQRAFTLLTSLSQAIGTEEGFHLVYQPKIDLPTGRCTGVEALLRWRHPQLGFVSPAEFVPLAEKTALMRPLSDWVLRHAMAQLAQWNARNIPLRLAINVSASDMEDSSFLEEAVRLAKTYDIDLSALELEFTESVLIRDASAVGSVLLRARELGMGIAVDDFGTGYSNWTYLRDLPITAIKLDQSFTRDLAGSPKAQSVTQAVIGLASQLGYRVVAEGIETHDTFHLLQAWGCHEGQGYLIAQPMLPEQLEDWLRRLEHHHHHH | not soluble |
| MEAVGADESYDGQQLYMMLVGHSRMADADRTAILGGTFTPIHNGHRALLHKAFQTASHDGSGDGHVIVGLTSPELATETRSDPTHVKQLGAYDDRRSALASELDQLGEPYTATYEIVRLDDTQGPAATRADVDALVASPEAKAQRRAYELNQQRRESGLHPLEIHTPPFVVAEDGTRISSTRIRNGEIDVHGRLLDASE | not soluble |
| MGSDKIHHHHHHMTPIRLIIVGLGARALTWIKVARANPDVEIVALCDPDPSARSAAARQFPKLPIGKDITDIIGTAADAVLLATPPRGREAQIEACCTHGLAVLAEKPLSDSVVTAARFVEMAEQAGVPLIVGLNFRYLAVTQEKRRLLADGAIGTPEFGRFIYERWRDGTQDWLNSYPLTMDHPMLWEQSIHHFDLMRYVHGVEPEYVQAHTANPSWTMYEGDTNVSALIGFKGGFHITYQGTWQSGHEPMNFNWRTDGSEGIVVQRAMFGDLAWAKRMEPELTPVDLPAHEAWITDAAALLDRFVAILRGATPECTGRDHLQSLFMLEACILASARRATVTIDEVRALTTPKETS | not soluble |
| KNYDLSDLPGPPSKPQVTDVTKNSVTLSWQPGTPGTLPASAYIIEAFSQSVSNSWQTVANHVKTTLYTVRGLRPNTIYLFMVRAINPQGLSDPSPMSDPVRTQD | soluble |
| MENRKLAVLIDADNAQSSLIAELLAEVAKYGTAIVKRAYGDWTTTQLKGWKEVLHQYAISPIQQFAYTKGKNSTDSALIIDAMDLLYTGNFDGFCLVSSDSDFTRLATRLREGGLTVIGLGEQSKTPRPFIAACDKFVFTEILRPAPPAKPKPETAATADKPKARSSRTRAKAAPHKEKHPLQDMFTSAIEAVARDSGWAELSAVGSYLAKNDPSFDPRNWGHGRLSQMVKKLDFLTVQESRNGSKLHSEIRLRHDGEAAVAEPAAPVETPQPSPSEEAAPPPRKKRSPRKKISPAGLEHHHHHH | soluble |
| MSLGNAMNITSCISQSECSCQLSESTSDTNSNSSFKTRSLGYDRSSQSLSISDVELGFKSVTETSSNNYRLRRIIESNDFFKDVMYKFFLLRENSLVLDQSKSYYSDKDPHYSIICSDYYVFALRRILIEGHHHHHH | not soluble |
| MRKALKDSKRIVVKVGTSTLTYENGSVNLMRIEKLSRVISDICNMGKEVVLVSSGAIGVGVGKLRLEKKPETIREKQAVAAVGQCALMHIYNKFFGEYSHVVAQVLLTRDVLENERMKNNVCNTFDTLLEKGIIPIVNENDAISIDEIQNILNFGDNDNLSAIVSTLVNADTLIILSDIDGFYDSDPRTNEDSKMLKEVYEITPEIEECAGGAGSNRGTGGMVTKLSAAKVATSNGIDMILANGENPEILIDILNGEDIGTMFVAKKGELEHHHHHH | not soluble |
| MGSDKIHHHHHHVDGTSKQVIKRDKMITQAISQLTPQNKLLVEEINKNVQDTILERLNMNIAGRWNDSSLSLTLMKSTIKFVPVIDSPSRLYLVNDSEKVFRIPEKFACFYGQNDNGETIYFYAIYHAENFMKDTNPKSYYQGYVEVFGKEAADKMVESSIKRTEAERWEIMSFTPQKNETKKFEYAREHSDDGTFFILTRENTYPHICFFKDKKPYYCWGANQDELSMEPLENYLKP | not soluble |
| MSPENPFLNHEKKEQERQAKRDAVLLAAVKIFNEQGFHSTSLDDVAKSLGISKPTIYHYLGNKEQVLLTCVEIGLQQLIEAAKDVEKQSISGFEKLRRFLFLYGCRNLDDFGRCVILTHDDALSKEGLVKFKALKRVVHEALLNIIRDAQLDQSINAEHDPKILAATLTGAINWSAKWYNPNGVLSKEETIQKMVDILTYGFEKK | not soluble |
| MSAPPTAPADPSTGSDRPKRSVPPPRHPTHAVDRAFLDLERRRPEVRWDAGGVAYLSGPPPSLADLRAYVAFRLGELPLLTSRVTGGRRPGWQPSEDFPVDRHVYEVVADGPADWDTALHSALNAPFAPGAYWGVWLIHGHEPDAYALCYRFLHACQDGSAAAMTFRAMLGDGEPSARPLPGGSGVFGVPRRFGAAVALATRFLARTFTVRRHRPDPAFAPAGERRLWRGRVPVDTLRLIGAGRGGSAHDAHLAALAGALSVWAARSGVPLPRVTAVLPVDARRADEEQTWGNRCFALPVDLPVGPAPGRPDGSPDEEAPLRRLDQIMAVTRKLRGDTWRQAVQDLVRYMPDRPTAWYLRRMLSPRVTNVMATSMPLAEKGSLGETRVTGTALLPLLVPGHLCGVGLSFFGDWAEVSFVADRALPLGELLPELWEQAVRELAESVQRGLEHHHHHH | not soluble |
| MGSDKIHHHHHHMSDADPKVPHRGHELLDVLARLGGSARNAQIAQVMDVSEETVRRLVKTLAKQGKVERVHGGTYLRGSQDAPMYSGALEQQPKEKTRIAKGVLELIRDGMTLFINVGSTTTYVAEQLRERRDLTIVTNSISTVASLADHNGSRVFLAGGEVSRSERGCFGRATEDFARRFAYDVLVIGADAMSPELGVLAANPREAELTRALLGNATRVIVAADYRKFSAIAPCIAAPLEAITDLVTDAAPPDALQDALDRCGVATHLAAKSGRITTRTPPPQDVGHSNTNRKTLSFPTEVS | not soluble |
